Numbering of substitutions follows the chain as printed. Names may count otherwise.
B1: serA49: E. coli PGD variant with replacement G349P (protein, UniProt P0A9T0 2-410, looked up, variant G349P)
D-3-phosphoglycerate …: AKVSLEKDKIKFLLVEGVHQKALESLRAAGYTNIEFHKGALDDEQLKESIRDAHFIGLRSRTHLTEDVINAAEKLVAIGCFCIGTNQVDLDAAAKRGIPVFNAPFSNTRSVAELVIGELLLLLRGVPEANAKAHRGVWNKLAAGSFEARGKKLGIIGYGHIGTQLGILAESLGMYVYFYDIENKLPLGNATQVQHLSDLLNMSDVVSLHVPENPSTKNMMGAKEISLMKPGSLLINASRGTVVDIPALCDALASKHLAGAAIDVFPTEPATNSDPFTSPLCEFDNVLLTPHIGGSTQEAQENIGLEVAGKLIKYSDNGSTLSAVNFPEVSLPLHGGRRLMHIHENRPPVLTALNKIFAEQGVNIAAQYLQTSAQMGYVVIDIEADEDVAEKALQAMKAIPGTIRARLLY
B2: serA420: E. coli PGD variant with replacement G349H (protein, UniProt P0A9T0 2-410, looked up, variant G349H)
D-3-phosphoglycerate …: B1 D-3-phosphoglycerate … with P348H
B3: serA445: E. coli PGD variant with replacement G349C (protein, UniProt P0A9T0 2-410, looked up, variant G349C)
D-3-phosphoglycerate …: B1 D-3-phosphoglycerate … with P348C
B4: serA229: E. coli PGD variant with replacement T372R (protein, UniProt P0A9T0 2-410, looked up, variant T372R)
D-3-phosphoglycerate …: B1 D-3-phosphoglycerate … with P348G, T371R
B5: serA422: E. coli PGD variant with replacement G349Q (protein, UniProt P0A9T0 2-410, looked up, variant G349Q)
D-3-phosphoglycerate …: B1 D-3-phosphoglycerate … with P348Q
B6: serA414: E. coli PGD variant with replacement G349A (protein, UniProt P0A9T0 2-410, looked up, variant G349A)
D-3-phosphoglycerate …: B1 D-3-phosphoglycerate … with P348A
B7: serA415: E. coli PGD variant with replacement G349K (protein, UniProt P0A9T0 2-410, looked up, variant G349K)
D-3-phosphoglycerate …: B1 D-3-phosphoglycerate … with P348K
B8: serA421: E. coli PGD variant with replacement G349N (protein, UniProt P0A9T0 2-410, looked up, variant G349N)
D-3-phosphoglycerate …: B1 D-3-phosphoglycerate … with P348N
B9: serA206: E. coli PGD variant with replacement T372P (protein, UniProt P0A9T0 2-410, looked up, variant T372P)
D-3-phosphoglycerate …: B1 D-3-phosphoglycerate … with P348G, T371P
B10: serA411: E. coli PGD variant with replacement G349T (protein, UniProt P0A9T0 2-410, looked up, variant G349T)
D-3-phosphoglycerate …: B1 D-3-phosphoglycerate … with P348T
B11: serA419: E. coli PGD variant with replacement G349F (protein, UniProt P0A9T0 2-410, looked up, variant G349F)
D-3-phosphoglycerate …: B1 D-3-phosphoglycerate … with P348F
B12: serA412: E. coli PGD variant with replacement G349V (protein, UniProt P0A9T0 2-410, looked up, variant G349V)
D-3-phosphoglycerate …: B1 D-3-phosphoglycerate … with P348V
B13: serA223: E. coli PGD variant with replacement T372E (protein, UniProt P0A9T0 2-410, looked up, variant T372E)
D-3-phosphoglycerate …: B1 D-3-phosphoglycerate … with P348G, T371E
B14: serA410: E. coli PGD variant with replacement G349S (protein, UniProt P0A9T0 2-410, looked up, variant G349S)
D-3-phosphoglycerate …: B1 D-3-phosphoglycerate … with P348S
B15: serA234: E. coli PGD variant with replacement T372K (protein, UniProt P0A9T0 2-410, looked up, variant T372K)
D-3-phosphoglycerate …: B1 D-3-phosphoglycerate … with P348G, T371K
B16: serA417: E. coli PGD variant with replacement G349W (protein, UniProt P0A9T0 2-410, looked up, variant G349W)
D-3-phosphoglycerate …: B1 D-3-phosphoglycerate … with P348W
B17: serA418: E. coli PGD variant with replacement G349Y (protein, UniProt P0A9T0 2-410, looked up, variant G349Y)
D-3-phosphoglycerate …: B1 D-3-phosphoglycerate … with P348Y
B18: serA416: E. coli PGD variant with replacement G349R (protein, UniProt P0A9T0 2-410, looked up, variant G349R)
D-3-phosphoglycerate …: B1 D-3-phosphoglycerate … with P348R
B19: serA21: E. coli PGD variant with replacement T372D (protein, UniProt P0A9T0 2-410, looked up, variant T372D)
D-3-phosphoglycerate …: B1 D-3-phosphoglycerate … with P348G, T371D
B20: serA: Escherichia coli wild-type 3-phosphoglycerate dehydrogenase (PGD, SEQ ID NO: 2) encoded by the serA gene (protein, listed as Escherichia coli)
chain: MAKVSLEKDKIKFLLVEGVHQKALESLRAAGYTNIEFHKGALDDEQLKESIRDAHFIGLRSRTHLTEDVINAAEKLVAIGCFCIGTNQVDLDAAAKRGIPVFNAPFSNTRSVAELVIGELLLLLRGVPEANAKAHRGVWNKLAAGSFEARGKKLGIIGYGHIGTQLGILAESLGMYVYFYDIENKLPLGNATQVQHLSDLLNMSDVVSLHVPENPSTKNMMGAKEISLMKPGSLLINASRGTVVDIPALCDALASKHLAGAAIDVFPTEPATNSDPFTSPLCEFDNVLLTPHIGGSTQEAQENIGLEVAGKLIKYSDNGSTLSAVNFPEVSLPLHGGRRLMHIHENRPGVLTALNKIFAEQGVNIAAQYLQTSAQMGYVVIDIEADEDVAEKALQAMKAIPGTIRARLLY

Columns and labels:
[1] = system: 3-phosphoglycerate dehydrogenase (PGD); assay: PGD enzyme activity in crude extracts (McKitrick and Pizer test); assay type: biochemical, Escherichia coli; conditions: crude extract of strain expressing plasmid-encoded serA allele; backward reaction, NADH oxidation at 340 nm
Excerpt: (§1) For example, the PGD activity can be determined in analogy with the method described by McKitrick and Pizer (1980, J. Bacteriol. 141:235-245). The backward reaction is used to measure the enzyme activity in an assay sample which contains phosphohydroxypyruvate and NADH/H^+. The reaction is started by adding enzyme and is monitored in a spectrophotometer by way of the decrease in extinction at 340 nm which is caused by oxidation of the NADH/H^+.
(§2) At an optical density of 1.0, serA expression was in each case induced by adding 0.4 mM […] and the culture was incubated for a further 3 hours. The cells were subsequently harvested by centrifugation, washed and resuspended in 2 ml of buffer (100 mM K-phosphate, pH 7.0; 10 mM MgCl2; 1 mM dithiothreitol). The cells were disrupted using a French press (Spectronic Instruments, Inc. Rochester, N.Y., USA) at a pressure of 18 000 psi. The crude extracts were clarified by centrifugation at 30 000 g and PGD activity was determined using the McKitrick and Pizer test (1980, J. Bacteriol. 141:235-245).

[2] = biological target: 3-phosphoglycerate dehydrogenase (PGD); assay: Inhibition of PGD activity by L-serine, inhibitor constant Ki; assay type: biochemical, Escherichia coli; conditions: Ki = inhibitor concentration at which activity is 50% of activity without inhibitor
Excerpt: as §1, §2

| Molecule | Activity [1] | Ki [2] |
| --- | --- | --- |
| B1 | 0.05 units/mg | 6 mM |
| B2 | 0.05 units/mg | 10 mM |
| B3 | 0.04 units/mg | 5 mM |
| B4 | 0.04 units/mg |  |
| B5 | 0.05 units/mg | 15 mM |
| B6 | 0.05 units/mg | 1 mM |
| B7 | 0.03 units/mg | 15 mM |
| B8 | 0.05 units/mg | 15 mM |
| B9 | 0.05 units/mg |  |
| B10 | 0.04 units/mg | 3 mM |
| B11 | 0.05 units/mg | 10 mM |
| B12 | 0.05 units/mg | 5 mM |
| B13 | 0.04 units/mg |  |
| B14 | 0.04 units/mg | 2 mM |
| B15 | 0.05 units/mg |  |
| B16 | 0.02 units/mg | 8 mM |
| B17 | 0.05 units/mg | 6 mM |
| B18 | 0.04 units/mg | 15 mM |
| B19 | 0.05 units/mg |  |
| B20 | 0.05 units/mg | < 0.1 mM |
